Read-outs that look alike come from different tables or passages of the source. Where a SMILES comes first, the peptide text is derived from it. Where no end group is shown, it is not given here. Side-chain parts run from the residue outwards. The star is where a group is joined. DOTA = O=C(O)CN1CCN(CC(=O)O)CCN(CC(=O)*)CCN(CC(=O)O)CC1; Stearoyl = CCCCCCCCCCCCCCCCCC(=O)*; Palmitoyl = CCCCCCCCCCCCCCCC(=O)*; Glu = glutamate linker
Columns and labels:
[1] = s9, 8 h
Protocol: (§2) Further, the stability of peptides in human S9 liver fractions (in the presence of cofactors) was tested (FIG. 12). […] To simulate and predict hepatic metabolic clearance, peptides were added to human S9 liver fractions. […] For each peptide, three independent experiments were performed.
(§3) Stability assay in human S9 liver fractions. Pooled human liver S9 fractions were obtained from Thermo Fisher Scientific at a total protein concentration of 20 mg/ml. Fractions were stored in 25 μl aliquots at −80° C. For stability experiments, they were diluted to a final concentration of 0.5 mg/ml in Tris buffer. Cofactors (or buffer) were added immediately before start of the experiment (NADPH: 1 mM, UDPGA: 0.5 mM, GSH: 2.5 mM, PAPS: 0.05 mg/ml, Sigma Aldrich). The reaction was started by adding peptides or compounds at a concentration of 20 μM to the mixture and gentle agitation at 37° C. Determination of enzymatic stability was performed as described for plasma.

[2] = tested on: CXCL12 induced migration of T-cells; assay: Migration assay (transwell, Jurkat cells); format: cell-based
Protocol: For each peptide, three independent experiments were performed. The error bars refer to the standard deviation.
Migration assay. Migration assays were performed using 96-well transwell assay plates (Corning Incorporated, Kennebunk, Me., USA) with 5 μm polycarbonate filters. […] Next, 75 μL (0.5×10^5 cells) of Jurkat cells (in assay buffer), together with/without the compounds, were added into the upper chambers. After 4 h at 37° C. (5% CO2), 100 μL of the lower chambers were transferred to a fresh 96 V-well plate and analyzed with Cell-Titer-Glo® assay (Promega, Madison, Wis., USA). The percentage of migrated cells was calculated as described by Balabanian et al. (2005). In order to obtain the relative migration in %, the percentage of migrated cells were normalized to the CXCL12-only control.

[3] = mouse, in vivo, iv
Text: To do so, the labeled conjugate was intravenously injected into the tail vein of immunodeficient mice, followed by localization and quantification of radioactivity within the body using positron emission tomography (PET).

[4] = Stability assay in human S9 liver fractions; conditions: with cofactors
Protocol: as §2, §3

[5] = tested on: CXCR4-tropic X4-HIV-1 (NL4-3); format: cell-based; conditions: CXCR4-tropic X4- (NL4-3)
Protocol: The activity of the peptides was estimated by different assays.
The X4-HIV inhibition assay is designed to measure the activity of the inventive peptides by their efficiency of blocking the infection of tissue culture cells by CXCR4-tropic HIV-1 variants.
HIV-1 inhibition assay. […] For infection of TZM-bl cells in presence of inhibitors, cells were seeded at a density of 1×10^5 cells/ml in 70 μl DMEM containing 2.5% FCS. Compounds were diluted in PBS and 10 μl were added. After 15 minutes of incubation cells were inoculated with 20 μl of diluted virus. Infection rates were determined three days later using Gal-Screen system (Applied Biosystems).

[6] = tested on: CXCL12 induced Ca2+-signalling; assay: Ca++ signaling in BCR-ABL-transformed murine bone marrow cells; format: cell-based; conditions: 1 μM
Protocol: Fifth, it was shown that the peptide derivatives inhibit calcium-signaling. CXCL12 stimulation of CXCR4 expressing B-cells leads to a strong calcium-release. In the presence of CXCR4 antagonists this response is reduced.
For calcium measurement, 1×10^6 BCR-ABL-transformed murine bone marrow cells were incubated with 5 μg/mL of Indo-1 (Molecular Probes) and 0.5 μg/mL of pluronic F-127 (Molecular Probes) in Iscove's medium supplemented with 1% FCS (Pan Biotech) at 37° C. for 45 min. Cells were then washed by centrifugation and the cell pellets were resuspended in Iscove's medium with 1% FCS and treated with the EPI-X4 derivatives (1 μM or 0.5 μM) for 10 minutes at room temperature. Cells were pre-warmed for 5 minutes at 37° C. Calcium flux was assessed by FACS measurement at BD LSR Fortessa. After 30 seconds of baseline recording, CXCR4-dependent calcium signaling was determined by stimulating with 100 ng/ml of mouse SDF-1a (PeproTech).

CXCR4 [7] = biological target: T1, CXCR4 (Homo sapiens, UniProt P61073); assay: 12G5-assay | IC50 (nM)
T1 construct: endogenous in cells; host or cells: SupT1 cells
Text: (§1) Table printed on a drawing sheet, Figure 2
Title: A Truncated Palmitoylated-JM#21
Head of the field: 12G5-assay | IC50 (nM)
First copying reader's note: The table is the legend of the plot in panel A; the first column also carries the plot symbols, which are not copied.
Where the first naming reader finds the target: passage: Values determined by the competition assay represent the potency of a compound to compete with an antibody that specifically binds to the binding pocket (ECL2) of CXCR4

CXCR4 [8] = biological target: T1, CXCR4; assay: 12G5-assay IC50 (nM)
Text: as §1
Title: B Truncated Palmitoylated-JM#21 N-terminally modified
Head of the field: 12G5-assay IC50 (nM)
First copying reader's note: The table doubles as the legend of the antibody competition plot beside it; the plot symbols before the names are not copied.
Where the first naming reader finds the target: passage: compete with an antibody that specifically binds to the binding pocket (ECL2) of CXCR4

[9] = biological target: T2, CXC chemokine receptor type 4 (CXCR4) (human, UniProt P61073 1-352); assay: competition
T2 chain: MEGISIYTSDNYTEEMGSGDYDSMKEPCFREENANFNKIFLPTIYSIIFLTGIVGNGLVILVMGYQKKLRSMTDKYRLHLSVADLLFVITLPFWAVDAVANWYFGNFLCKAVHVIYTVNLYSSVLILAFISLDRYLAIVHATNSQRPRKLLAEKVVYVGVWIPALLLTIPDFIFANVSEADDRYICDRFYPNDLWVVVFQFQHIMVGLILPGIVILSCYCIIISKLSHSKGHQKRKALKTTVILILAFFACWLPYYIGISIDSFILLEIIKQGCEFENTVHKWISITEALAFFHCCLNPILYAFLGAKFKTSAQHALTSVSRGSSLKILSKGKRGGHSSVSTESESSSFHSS

[10] = biological target: T3, CXC chemokine receptor type 4 (CXCR4) (human, UniProt P61073 1-352); assay: antibody competition assay (FIG. 5)
T3 construct: whole, on cells

[11] = biological target: T2, CXC chemokine receptor type 4 (CXCR4); assay: 12G5 antibody competition
[12] = biological target: T4, CXC chemokine receptor type 4 (CXCR4) (human), P61073; assay: 12G5-APC antibody competition on SupT1 cells, flow cytometry
T4 chain: T2 chain

[13] = biological target: T4, CXC chemokine receptor type 4 (CXCR4) …; assay: competition; conditions: chains peptide; modification not given
[14] = biological target: T4, CXC chemokine receptor type 4 (CXCR4) …; assay: cell-based or functional assay
[15] = biological target: T3, CXC chemokine receptor type 4 (CXCR4); assay: cell-based or functional assay
[16] = biological target: T2, CXC chemokine receptor type 4 (CXCR4); assay: 12G5 antibody competition
[17] = biological target: T2, CXC chemokine receptor type 4 (CXCR4); assay: competition
[18] = biological target: T2, CXC chemokine receptor type 4 (CXCR4); assay: competition
[19] = biological target: T3, CXC chemokine receptor type 4 (CXCR4); assay: 12G5-APC antibody competition on SupT1 cells, flow cytometry
Protocol: To the right of the diagrams, an assignment of the curves to the tested peptides is explained. […] Three independent experiments were carried out for each peptide in each assay. The error bars refer to the standard deviation.
Antibody competition assay. Competition of compounds with antibody binding was performed on SupT1 cells. For that cells were washed in PBS containing 1% FCS and 50,000 cells were then seeded per well in a 96 V-well plate. Buffer was removed and plates were precooled at 4° C. […] The antibody was used at a concentration closed to its determined Kd. 15 μl compounds were then added to the cells and 15 μl antibody immediately afterwards. Plates were incubated at 4° C. in the dark for 2 hours. Afterwards cells were washed twice with PBS containing 1% FCS and fixed with 2% PFA. Antibody binding was analyzed by flow cytometry (FACS CytoFLEX; Beckman Coulter®).

In the case of “ILRWSRK(Glu-Ste)-NH2 (ILRWSRK([Glu-Stearoyl])-NH2) [JM #255]”, the “remaining activity in human S9 liver fractions after 8 hours” value [1] is reported as “more rapidly degraded compared to their N-terminally modified variants” and the “inhibition of cell migration” value ([2]; 30 nM peptide) is reported as “almost complete inhibition of cell migration”.

In the case of “C-deferoxamine linked JM #122: JM #122 with deferoxamine conjugated via an additional C-terminal cysteine as (succinimido-propionyl-desferrioxamine) acetate (ILRWSRKLPSVS-{C(succinimido-propionyl-desferrioxamine)}; also: acetate salt)”, the “biodistribution by PET” value [3] is reported as “rapid (5 min post injection) absorption of the peptide by the kidneys and subsequent release into the bladder”.

In the case of `CCCCCCCCCCCCCCCC(=O)N[C@@H](CCC(=O)O)C(=O)NCCCC[C@H](NC(=O)[C@H](CCCNC(=N)N)NC(=O)[C@H](CO)NC(=O)[C@H](Cc1c[nH]c2ccccc12)NC(=O)[C@H](CCCNC(=N)N)NC(=O)[C@H](CC(C)C)NC(=O)[C@@H](N)[C@@H](C)CC)C(N)=O` [JM #192, ILRWSRK(Glu-Pal)-NH2] (H-ILRWSRK([Glu-Palmitoyl])-NH2; N-terminus assumed), the “remaining activity in human S9 liver fractions after 2 hours” value ([4]; 2 hours) is reported as “faster inactivation”, the “remaining activity in human S9 liver fractions after 8 hours” value ([4]; 8 hours) is reported as “more rapidly degraded compared to their N-terminally modified variants” and the IC50 [5] is reported as 0.002 µM. For the same molecule, the “reduction of CXCL12 induced calcium-signaling” value [6] was “almost completely blocked calcium-signaling”, the “remaining activity in plasma in vivo 4 hours post injection” value (mice, i.v. tail vein, 4 hours post injection) was “completely lost” and the “inhibition of CXCL12 induced migration of T-cells (in words)” value [2] was “high activity”.

With “ILRWSRK(Glu-Ste)LPCVS (ILRWSRK([Glu-Stearoyl])LPCVS) [JM #198]” the “remaining activity in human S9 liver fractions after 8 hours” value [1] was “more stable than its palmitoylated counterpart JM #143”, the “remaining activity in plasma in vivo 4 hours post injection” value (mouse, in vivo, iv, 4 h) was “remained completely active” and the “remaining activity in plasma in vivo 8 hours post injection” value (mouse, in vivo, iv, 8 h) was 33%. For the same molecule, the “remaining activity in plasma in vivo after 24 hours” value (mouse, in vivo, iv, 24 h) was “completely eliminated”.

For `CC(C)C[C@H](NC(=O)[C@@H](NC(=O)[C@@H]1CCCN1C(=O)[C@@H](NC(=O)[C@H](CO)NC(=O)[C@@H](NC(=O)[C@H](CCC(N)=O)NC(=O)[C@@H]1CCCN1C(=O)[C@@H](NC(=O)[C@H](CCCCN)NC(=O)[C@H](CCCCN)NC(=O)[C@@H](NC(=O)[C@H](Cc1ccc(O)cc1)NC(=O)[C@H](CCCNC(=N)N)NC(=O)[C@@H](NC(=O)[C@@H](N)CC(C)C)C(C)C)[C@@H](C)O)C(C)C)C(C)C)[C@@H](C)O)[C@@H](C)O)C(=O)O` [EPIX4] (H-LVRYTKKVPQVSTPTL-OH; N-terminus and C-terminus assumed), the IC50 (CXCR4 [7]) was 1.78 µM and the IC50 (CXCR4 [8]) was 1.46 µM.

B1: JM#206 (peptide)
peptide: ILRWSRKLPCVSK(DOTA)
notes: JM#21 with DOTA; also called DOTA-K-JM#21
In the case of B1, the IC50 [9] is reported as 0.206 µM and the binding result [10] is reported as “binds”.

B2: JM#207 (peptide)
peptide: ILRWSRKLPSVSK(DOTA)
notes: JM#122 with DOTA; also called DOTA-K-JM#122
With B2 the IC50 [9] was 0.207 µM and the binding result [10] was “binds”.

With ILRWSRKLK([Glu-Palmitoyl])-NH2 [JM#193] the IC50 [11] was 0.003 µM.

For LVRYTKKVPQVSTPTL (modifications not checked) [EPI-X4], the IC50 [12] was 2.5 µM, the IC50 [13] was 2.14 µM and the IC50, X4-HIV-1 inhibition assay [14] was 8.63 µM. For the same molecule, the reduction of AKT phosphorylation at 10 µM [14] was 40%.

In the case of ILRWSRKLP-NH2 [JM#114], the IC50 [11] is reported as 0.268 µM, the “IC50, HIV inhibition assay” value [15] is reported as over 0.15 µM and the IC50 [16] is reported as 0.232 µM.

With ILRWSRKLPCVS [JM#21] the “fold effectiveness against WSC02, AKT signaling” value [15] was about 10 fold, the “fold more effective X4-HIV-1 inhibition than EPI-X4” value [15] was about 100 fold and the IC50 [17] was 0.147 µM. For the same molecule, the IC50 [18] was 0.211 µM and the IC50 [9] was 0.358 µM.

With IVRWSKKVPCVS [WSC02] the “IC50, X4-HIV-1 inhibition assay” value [15] was 0.31 µM, the IC50 [17] was 0.274 µM and the IC50 [19] was 0.35 µM. The IC50 [18] was 0.254 µM and the IC50 [9] was 0.413 µM.

For ILRWSRKK-NH2 (not fully specified (residue 8)) [JM#191], the IC50 [11] was 0.003 µM, the IC50 [19] was 0.001 µM and the “fold more effective binding than EPI-X4” value [19] was over 2000 fold. For the same molecule, the “fold more effective than WSC02” value [19] was about 300 fold.
